{"source": "paper doi:10.1101/2021.07.06.451223", "about": "(bioRxiv, 2021)", "key": {"crystal structure": {"target": "the molecule itself", "assay": "crystal structure"}, "turbidity assay": {"target": "the molecule itself", "assay": "turbidity assay"}}, "data": [{"protein": "CASQ1 S248E (amino acids 35-396) (natural protein, human, UniProt P31415 35-396, looked up) QEGLDFPEYDGVDRVINVNAKNYKNVFKKYEVLALLYHEPPEDDKASQRQFEMEELILELAAQVLEDKGVGFGLVDSEKDAAVAKKLGLTEVDSMYVFKGDEVIEYDGEFSADTIVEFLLDVLEDPVELIEGERELQAFENIEDEIKLIGYFKSKDSEHYKAFEDAAEEFHPYIPFFATFDSKVAKKLTLKLNEIDFYEAFMEEPVTIPDKPNEEEEIVNFVEEHRRSTLRKLKPESMYETWEDDMDGIHIVAFAEEADPDGFEFLETLKAVAQDNTENPDLSIIWIDPDDFPLLVPYWEKTFDIDLSAPQIGVVNVTDADSVWMEMDDEEDLPSAEELEDWLEDVLEGEINTEDDDDDDDD", "values": [{"measurement": "stoichiometry N", "setting": "crystal structure", "result": 2}]}, {"protein": "CASQ1 S369E (amino acids 35-396) (natural protein, human, UniProt P31415 35-396, looked up) QEGLDFPEYDGVDRVINVNAKNYKNVFKKYEVLALLYHEPPEDDKASQRQFEMEELILELAAQVLEDKGVGFGLVDSEKDAAVAKKLGLTEVDSMYVFKGDEVIEYDGEFSADTIVEFLLDVLEDPVELIEGERELQAFENIEDEIKLIGYFKSKDSEHYKAFEDAAEEFHPYIPFFATFDSKVAKKLTLKLNEIDFYEAFMEEPVTIPDKPNSEEEIVNFVEEHRRSTLRKLKPESMYETWEDDMDGIHIVAFAEEADPDGFEFLETLKAVAQDNTENPDLSIIWIDPDDFPLLVPYWEKTFDIDLSAPQIGVVNVTDADSVWMEMDDEEDLPEAEELEDWLEDVLEGEINTEDDDDDDDD", "values": [{"measurement": "binding result", "setting": "turbidity assay", "result": "binds"}]}, {"protein": "CASQ1 S248/369E (amino acids 35-396) (natural protein, human, UniProt P31415 35-396, looked up) QEGLDFPEYDGVDRVINVNAKNYKNVFKKYEVLALLYHEPPEDDKASQRQFEMEELILELAAQVLEDKGVGFGLVDSEKDAAVAKKLGLTEVDSMYVFKGDEVIEYDGEFSADTIVEFLLDVLEDPVELIEGERELQAFENIEDEIKLIGYFKSKDSEHYKAFEDAAEEFHPYIPFFATFDSKVAKKLTLKLNEIDFYEAFMEEPVTIPDKPNEEEEIVNFVEEHRRSTLRKLKPESMYETWEDDMDGIHIVAFAEEADPDGFEFLETLKAVAQDNTENPDLSIIWIDPDDFPLLVPYWEKTFDIDLSAPQIGVVNVTDADSVWMEMDDEEDLPEAEELEDWLEDVLEGEINTEDDDDDDDD", "values": [{"measurement": "binding result", "setting": "turbidity assay", "result": "binds"}]}]}
